Patent US10865390B2, “Alcohol dehydrogenase mutant and application thereof in synthesis of diaryl chiral alcohols” (Jiangnan University, priority 2018, dated 2020)

How the values were obtained:
Assay type in all cases: biochemical
[1] = Stereoselectivity analysis of CPMK reduction (chiral liquid chromatography, Table 1); conditions: product CPMA from CPMK
Experimental: (§1) In an embodiment of the present disclosure, the (R)- and (S)-CPMA is chromatographed by taking 100 μL reaction solution, adding 500 μL ethyl acetate, shaking for 1-2 min, centrifuging at 12,000 rpm for 2-5 min, placing a supernatant into a centrifuge tube, and after an organic phase is naturally volatilized completely, adding 500 μL chromatographic pure ethanol for chiral liquid chromatography of a conversion rate and an ee value. The specific chromatographic conditions are as follows: Daicel Chiralcel OB-H (5 μm, 250 mm×4.6 mm) liquid chromatography column, mobile phases are n-hexane: ethanol: ethanolamine (90:10:0.01, v/v/v), the flow rate is 1 mL/min, the column temperature is 30° C., the UV detection wavelength is 254 nm, the injection volume is 10 μL, and the retention time for (R)-CPMA and that for (S)-CPMA are 11.14 min and 12.34 min respectively.
Method for determining optical purity ee:
As: molar concentration of (S)-CPMA obtained by liquid chromatography; and AR: molar concentration of (R)-CPMA obtained by liquid chromatography.
The activity of KpADH at different substrate concentrations and coenzyme concentrations was determined, and a double reciprocal curve was made based on the reciprocal of activity and substrate concentration to calculate kinetic parameters.

[2] = Substrate specificity: reduction of prochiral carbonyl compound (Table 2)
Excerpt: The reduction on prochiral carbonyl compounds by the alcohol dehydrogenase mutants obtained in Example 2 was studied, and the studied prochiral carbonyl compounds include (4-chlorophenyl)-(pyridin-2-yl)-methanone (CPMK), phenyl-(pyridin-2-yl)-methanone, (4-chlorophenyl)-(phenyl)-methanone, (4-bromophenyl)-(phenyl)-methanone, (4-fluorophenyl)-(pyridin-2-yl)-methanone, (4-methoxyphenyl)-(phenyl)-methanone, acetophenone, 4-chloroacetophenone and 2-(4-chlorophenyl)acetyl chloride.

[3] = 20 mL biocatalytic system: asymmetric reduction of CPMK
Experimental: as §1
A 20 mL biocatalytic system was established: 100 mM potassium phosphate buffer (pH 7.0), and the alcohol dehydrogenase mutants M6 and M7 obtained in Example 2 as well as wild KpADH 10 g/L, CPMK 100 mM, 200 mM and 500 mM were added (substrate added in batches). […]

B1: M2: alcohol dehydrogenase mutant: valine for glutamic acid at position 214 (E214V) of SEQ ID No. 2 (protein)
chain: MSVLISGASGYIAKHIVRVLLEQNYKVIGTVRSQDKADKLLKQYNNPNLSYEIVPEIANLDAFDDIFKKHGKEIKYVIHAASPVNFGAKDLEKDLVIPAINGTKNMFEAIKKYAPDTVERVVMTASYASIMTPHRQNDPTLTLDEETWNPVTEENAYENVFTAYCASKTFAEKEAWKFVKENSDAVKFKLTTIHPSFVFGPQNFDEDVTKKLNVTCEIINGLLHAPFDTKVEKTHFSQFIDVRDVAKTHVLGFQKDELINQRLLLCNGAFSQQDIVNVFNEDFPELKGQFPPEDKDTDLNKGVTGCKIDNEKTKKLLAFEFTPFHKTIHDTVYQILHKEGRV
modifications: Protein translated from synthetic DNA
ee [1]: 92.3%
ee value of product ([2]; substrate drawing 1 (CPMK)): 92.3%
ee value of product ([2]; substrate drawing 2): 30.6%
ee value of product ([2]; substrate drawing 3): 87.9%
ee value of product ([2]; substrate drawing 4): 95.5%
ee value of product ([2]; substrate drawing 5): 0.56%
ee value of product ([2]; substrate drawing 6): 23.2%
ee value of product ([2]; substrate drawing 7): 45.3%
ee value of product ([2]; substrate drawing 8): 94.9%
ee value of product ([2]; substrate drawing 9): 91.2%

B2: M7: alcohol dehydrogenase mutant E214V, T215S of SEQ ID No. 2 (protein)
chain: MSVLISGASGYIAKHIVRVLLEQNYKVIGTVRSQDKADKLLKQYNNPNLSYEIVPEIANLDAFDDIFKKHGKEIKYVIHAASPVNFGAKDLEKDLVIPAINGTKNMFEAIKKYAPDTVERVVMTASYASIMTPHRQNDPTLTLDEETWNPVTEENAYENVFTAYCASKTFAEKEAWKFVKENSDAVKFKLTTIHPSFVFGPQNFDEDVTKKLNVSCEIINGLLHAPFDTKVEKTHFSQFIDVRDVAKTHVLGFQKDELINQRLLLCNGAFSQQDIVNVFNEDFPELKGQFPPEDKDTDLNKGVTGCKIDNEKTKKLLAFEFTPFHKTIHDTVYQILHKEGRV
modifications: Protein translated from synthetic DNA
ee value of product ([2]; substrate drawing 2): 11.9%
ee value of product ([2]; substrate drawing 3): 99.4%
ee value of product ([2]; substrate drawing 5): 9.22%
ee value of product ([2]; substrate drawing 6): 45.7%
ee value of product ([2]; substrate drawing 7): 51.3%
ee value of product ([2]; substrate drawing 8): 95.1%
ee value of product ([2]; substrate drawing 9): 77.5%
ee value of final reduction product ([3]; 20 mL biocatalytic system, enzyme 10 g/L, 30° C., pH 7.5): 99.7%
Conversion rate ([3]; CPMK 100 mM, reaction time 1 h): 34.0%
Conversion rate ([3]; CPMK 100 mM, reaction time 2 h): 40.8%
Conversion rate ([3]; CPMK 100 mM, reaction time 3 h): 41.5%
Conversion rate ([3]; CPMK 100 mM, reaction time 4 h): 46.5%
Conversion rate ([3]; CPMK 100 mM, reaction time 6 h): 58.7%
Conversion rate ([3]; CPMK 100 mM, reaction time 8 h): 69.0%
Conversion rate ([3]; CPMK 100 mM, reaction time 12 h): 99.7%
Conversion rate ([3]; CPMK 100 mM, reaction time 24 h): 99.7%
Conversion rate ([3]; CPMK 200 mM, reaction time 1 h): 20.9%
Conversion rate ([3]; CPMK 200 mM, reaction time 2 h): 33.1%
Conversion rate ([3]; CPMK 200 mM, reaction time 3 h): 48.1%
Conversion rate ([3]; CPMK 200 mM, reaction time 4 h): 55.2%
Conversion rate ([3]; CPMK 200 mM, reaction time 6 h): 77.4%
Conversion rate ([3]; CPMK 200 mM, reaction time 8 h): 86.3%
Conversion rate ([3]; CPMK 200 mM, reaction time 12 h): 92.2%
Conversion rate ([3]; CPMK 200 mM, reaction time 24 h): 99.7%
Conversion rate ([3]; CPMK 500 mM, reaction time 1 h): 10.8%
Conversion rate ([3]; CPMK 500 mM, reaction time 2 h): 21.1%
Conversion rate ([3]; CPMK 500 mM, reaction time 3 h): 38.7%
Conversion rate ([3]; CPMK 500 mM, reaction time 4 h): 43.2%
Conversion rate ([3]; CPMK 500 mM, reaction time 6 h): 62.1%
Conversion rate ([3]; CPMK 500 mM, reaction time 8 h): 70.7%
Conversion rate ([3]; CPMK 500 mM, reaction time 12 h): 89.9%
Conversion rate ([3]; CPMK 500 mM, reaction time 24 h): 99.4%
time required to achieve a conversion rate close to 99.9% ([3]; CPMK concentration 200 mM): 24 h
